Molecular target: RhoGDIα S34D (phosphomimetic), bacterially expressed, hexahistidine-tagged (human) (UniProt P52565)
Test: pull-down

UniProt P52565, sequence (P52565 whole entry S34D): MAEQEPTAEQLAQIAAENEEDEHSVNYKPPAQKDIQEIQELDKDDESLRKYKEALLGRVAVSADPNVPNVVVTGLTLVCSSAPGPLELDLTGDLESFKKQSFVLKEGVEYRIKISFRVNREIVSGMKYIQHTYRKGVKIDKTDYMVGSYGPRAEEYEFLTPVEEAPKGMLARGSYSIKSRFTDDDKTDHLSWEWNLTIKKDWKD

Q: For “RhoA, endogenous in rat embryo fibroblasts (from UniProt P61589 1-193) (natural protein)”, which reduction of binding against wild-type RhoGDIα is on record?
A: 75%
